# In US20140303084A1 (Biogen, published 2014):
# Square brackets hold non-standard residues; d marks the D form. Ends that are not written are not given here. NMeW = CN[C@@H](Cc1c[nH]c2ccccc12)C(=O)O; NMeY = CN[C@@H](Cc1ccc(O)cc1)C(=O)O; NMeF = CN[C@@H](Cc1ccccc1)C(=O)O; NMeT = CN[C@H](C(=O)O)[C@@H](C)O; NMeL = CN[C@@H](CC(C)C)C(=O)O; NMeK = CN[C@@H](CCCCN)C(=O)O; NMeS = CN[C@@H](CO)C(=O)O; NMeA = CN[C@@H](C)C(=O)O; Orn = NCCC[C@H](N)C(=O)O; Dab = NCC[C@H](N)C(=O)O; Dap = NC[C@H](N)C(=O)O
# B1: Dpr-LTCLASYCWLF (peptide)
# peptide: [Dap]LTCLASYCWLF
# modifications: not fully specified; printed as Dpr-LTCLASYCWLF; cysteine pairing not given here
# B2: KLTCLASKCWLF (peptide)
# peptide: KLTCLASKCWLF
# B3: KLT-Glu-LASY-Dap-WLF (peptide)
# peptide: KLTELASY[Dap]WLF
# modifications: not fully specified; printed as KLT-Glu-LASY-Dap-WLF
# B4: KLTCLASYCW-MeLeu-F (peptide)
# peptide: KLTCLASYCW[NMeL]F
# modifications: cysteine pairing not given here
# B5: KLTCLASyCWLF (peptide)
# peptide: KLTCLAS[dY]CWLF
# modifications: not fully specified (bridges); printed as KLTCLASyCWLF; cysteine pairing not given here
# B6: KLTALASYAWLF (peptide)
# peptide: KLTALASYAWLF
# B7: KLT-Lys-LASY-Glu-WLF (peptide)
# peptide: KLTKLASYEWLF
# B8: KLTC-MeLeu-ASYCWLF (peptide)
# peptide: KLTC[NMeL]ASYCWLF
# modifications: cysteine pairing not given here
# B9: KLT-Glu-LASY-Orn-WLF (peptide)
# peptide: KLTELASY[Orn]WLF
# modifications: not fully specified; printed as KLT-Glu-LASY-Orn-WLF
# B10: KLTCLASY-Pen-WLF (peptide)
# peptide: KLTCLASYXWLF
# modifications: not fully specified; Pen 9
# B11: KL-MeThr-CLASYCWLF (peptide)
# peptide: KL[NMeT]CLASYCWLF
# modifications: cysteine pairing not given here
# B12: KLT-Pen-LASYCWLF (peptide)
# peptide: KLTXLASYCWLF
# modifications: not fully specified; Pen 4
# B13: KLT-Orn-LASY-Glu-WLF-CONH2 (peptide)
# peptide: KLT[Orn]LASYEWLF-NH2
# modifications: N-terminus assumed
# SMILES: CC(C)C[C@H](NC(=O)[C@H](CCCN)NC(=O)[C@@H](NC(=O)[C@H](CC(C)C)NC(=O)[C@@H](N)CCCCN)[C@@H](C)O)C(=O)N[C@@H](C)C(=O)N[C@@H](CO)C(=O)N[C@@H](Cc1ccc(O)cc1)C(=O)N[C@@H](CCC(=O)O)C(=O)N[C@@H](Cc1c[nH]c2ccccc12)C(=O)N[C@@H](CC(C)C)C(=O)N[C@@H](Cc1ccccc1)C(N)=O
# B14: KLTCLASYCW (peptide)
# peptide: KLTCLASYCW
# B15: KLT-Glu-LASY-Dab-WLF (peptide)
# peptide: KLTELASY[Dab]WLF
# modifications: not fully specified; printed as KLT-Glu-LASY-Dab-WLF
# B16: KKTCLASYCWLF (peptide)
# peptide: KKTCLASYCWLF
# B17: QLTCLASYCWLF (peptide)
# peptide: QLTCLASYCWLF
# B18: KLTCLASYCWLK (peptide)
# peptide: KLTCLASYCWLK
# B19: KLTCLASYC-MeTrp-LF (peptide)
# peptide: KLTCLASYC[NMeW]LF
# modifications: cysteine pairing not given here
# B20: KLTCLKSYCWLF (peptide)
# peptide: KLTCLKSYCWLF
# B21: CLASYCWLF (peptide)
# peptide: CLASYCWLF
# B22: KLTCLASYcWLF (peptide)
# peptide: KLTCLASY[dC]WLF
# modifications: cysteine pairing not given here
# B23: KLTCLASYCWLf (peptide)
# peptide: KLTCLASYCWL[dF]
# modifications: cysteine pairing not given here
# B24: KLTCLAS-MeTyr-CWLF (peptide)
# peptide: KLTCLAS[NMeY]CWLF
# modifications: cysteine pairing not given here
# B25: MeLys-LTCLASYCWLF (peptide)
# peptide: [NMeK]LTCLASYCWLF
# modifications: cysteine pairing not given here
# B26: KLTCLASYC (peptide)
# peptide: KLTCLASYC
# B27: KLTCL-MeAla-SYCWLF (peptide)
# peptide: KLTCL[NMeA]SYCWLF
# modifications: cysteine pairing not given here
# B28: KLT-Dap-LASY-Glu-WLF (peptide)
# peptide: KLT[Dap]LASYEWLF
# modifications: not fully specified; printed as KLT-Dap-LASY-Glu-WLF
# B29: KLTCKASYCWLF (peptide)
# peptide: KLTCKASYCWLF
# B30: KLTCLAsYCWLF (peptide)
# peptide: KLTCLA[dS]YCWLF
# modifications: cysteine pairing not given here
# B31: KLT-Orn-LASY-Glu-WLF-COOH (peptide)
# peptide: KLT[Orn]LASYEWLF-OH
# modifications: N-terminus assumed
# SMILES: CC(C)C[C@H](NC(=O)[C@H](CCCN)NC(=O)[C@@H](NC(=O)[C@H](CC(C)C)NC(=O)[C@@H](N)CCCCN)[C@@H](C)O)C(=O)N[C@@H](C)C(=O)N[C@@H](CO)C(=O)N[C@@H](Cc1ccc(O)cc1)C(=O)N[C@@H](CCC(=O)O)C(=O)N[C@@H](Cc1c[nH]c2ccccc12)C(=O)N[C@@H](CC(C)C)C(=O)N[C@@H](Cc1ccccc1)C(=O)O
# B32: KLTCLA-MeSer-YCWLF (peptide)
# peptide: KLTCLA[NMeS]YCWLF
# modifications: cysteine pairing not given here
# B33: TCLASYCWLF (peptide)
# peptide: TCLASYCWLF
# B34: KLTSLASYSWLF (peptide)
# peptide: KLTSLASYSWLF
# B35: KLTCLASYCWL-MePhe (peptide)
# peptide: KLTCLASYCWL[NMeF]
# modifications: cysteine pairing not given here
# B36: K-MeLeu-TCLASYCWLF (peptide)
# peptide: K[NMeL]TCLASYCWLF
# modifications: cysteine pairing not given here
# Biological target: human Factor IXa (human, UniProt P00740 47-191; P00740 227-461)
# Experiment: cell-based or functional assay
row,Binder,"EC50 [µM], FXa generation assay"
1,B1,> 1 µM
2,B2,> 100 µM
3,B3,< 0.5 µM
4,B4,> 1 µM
5,B5,> 5 µM
6,B6,> 5.8 µM
7,B7,< 0.5 µM
8,B8,> 20 µM
9,B9,< 0.5 µM
10,B10,> 20 µM
11,B11,< 0.5 µM
12,B12,> 20 µM
13,B13,< 0.5 µM
14,B14,> 10 µM
15,B15,> 1 µM
16,B16,> 50 µM
17,B17,> 20 µM
18,B18,> 100 µM

row,Binder,"EC50 [µM], FXa generation assay"
1,B19,> 20 µM
2,B20,> 1 µM
3,B21,> 20 µM
4,B22,> 1 µM
5,B23,> 1 µM
6,B24,> 20 µM
7,B25,< 0.5 µM
8,B26,> 1 µM
9,B27,> 20 µM
10,B28,< 0.5 µM
11,B29,> 1 µM
12,B30,> 1 µM
13,B31,< 0.5 µM
14,B32,> 20 µM
15,B33,< 0.5 µM
16,B34,> 15 µM
17,B35,> 1 µM
18,B36,< 0.5 µM
